Results on seven molecules are retold here after patent publication US20110064740A1 (GlaxoSmithKline, published 2011).

Substitutions are numbered along the chain they refer to. Names may count otherwise.

Assay [1] addresses T1, human beta-amyloid peptide (1-42) (human, UniProt P05067 672-713).
T1 construct: domain: beta-amyloid peptide (1-42); Unlabelled peptide: amine-coupled to a CM5 chip (Method A(ii)) or in solution as analyte (Method B); also called beta-amyloid (1-42)
The experiment in a line: SPR Biacore 3000, Method B: antibody captured, β-amyloid as analyte. Here is the method: (§1) In the second instance the assay was reversed, in that antibodies were first captured to a level of 1000-2500 resonance units on an anti-mouse IgG polyclonal antibody surface (for recombinant mouse 2E7 MAb) or a protein A surface (for humanized H2L1) of a CM5 biosensor chip. Freshly prepared beta-amyloid (1-40) or (1-42) was diluted down in HBS-EP buffer and passed over the captured-antibody surface at concentrations ranging from 4-500 nM (Table 10C and 10D).
(§2) In both methods, regeneration was via a pulse of 100 mM H₃PO₄, and for Table 10A data also followed by a pulse of 50 mM NaOH. […] All runs were double referenced against buffer blank injections. Analysis was carried out using the Biacore™ analysis software BIAevaluation version 4.1.
On the technique in general: In SPR one partner is held on a chip, and binding of the other changes the refractive index at the surface.

Assay [2] concerns the target T2, human beta-amyloid peptide (1-40) (human, UniProt P05067 672-711).
T2 construct: domain: beta-amyloid peptide (1-40); Unlabelled peptide: amine-coupled to a CM5 chip (Method A(ii)) or in solution as analyte (Method B); also called beta-amyloid (1-40)
The assay is described as above. Here is the method:
as §1, §2

The target in assay [3] is T3, human Aβ peptide (1-40) biotinylated at the C terminus (human, UniProt P05067 672-711, biotinylated at the C-terminus).
T3 construct: domain: β-amyloid peptide (1-40); Numbers 1-40 count on the β-amyloid peptide, not on APP; also called beta-amyloid 1-40 peptide (biotinylated at the C-terminus); streptavidin-captured beta-amyloid (1-40)
T3 sequence (P05067 672-711 limits assumed): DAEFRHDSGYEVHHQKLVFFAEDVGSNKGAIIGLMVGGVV
As to the kind of experiment: Aβ binding ELISA, human Aβ (1-40) biotinylated at the C terminus.

The target in assay [4] is T3, human Aβ peptide (1-40) biotinylated at …. The experiment in a line: SPR Biacore 3000, Method A(i): C-terminally biotinylated β-amyloid 1-40 on streptavidin chip, antibody as analyte; Average(SD) of two runs. On the procedure: (§3) (i) Briefly, <20 resonance units of beta-amyloid 1-40 peptide (biotinylated at the C-terminus) were captured on a streptavidin biosensor chip (as used for Table 10A). The antibodies were diluted down in HBS-EP buffer and passed over the streptavidin/beta-amyloid surface at concentrations ranging from 0.001 nM-8 nM (for Table 10A). Two separate runs were carried out; each run was carried out on a new streptavidin/beta-amyloid surface. Runs 1 and 2 were essentially the same though there were some differences in the parameters used; Run 1 was carried out using a chip surface on which 16 RU's of beta-amyloid were captured, and antibody concentrations of 0.001 nM-8 nM were used, an association time of 4 minutes and a dissociation time of 20 minutes were used at a flow rate of 50 μl per minute. For Run 2, less than 10 RU's of beta-amyloid were captured and antibody concentrations of 0.003125 nM-8 nM were used. The flow rate and association times were the same as Run 1, however the dissociation time was reduced to 15 minutes. (ii) Beta amyloid (1-40) and (1-42) were amine-coupled on different surfaces of a CM5 biosensor chip to a level of <20 resonance units (as used for Table 10B). The antibodies were diluted down in HBS-EP buffer and passed over the biosensor/beta-amyloid surface at concentrations ranging from 1 nM-64 nM (as used for Table 10B).
as §2

In assay [5] the target is T4, human Aβ peptide (length not stated) (human, UniProt P05067 672-711).
T4 construct: also called β-amyloid in solution
T4 sequence (P05067 672-711): as the sequence (P05067 672-711 limits assumed) above
The experiment in a line: competition ELISA, β-amyloid in solution pre-incubated with the antibody; competitor: immobilised mouse 2E7; Experiment 1. On the procedure: (§4) 2) β-amyloid in solution; a constant concentration of β-amyloid was pre-incubated with a dilution series of humanised 2E7 antibody variants—the mixture including complexed and free amyloid was added for a short time to wells containing immobilised mouse 2E7 MAb. The amount of free β-amyloid that was still available for binding the immobilised parental 2E7 MAb was then detected.
Background: ELISA stands for enzyme-linked immunosorbent assay.

For assay [6], the target named is T3, human Aβ peptide (1-40) biotinylated at …. As to the kind of experiment: Aβ binding ELISA, human Aβ (1-40) biotinylated at the C terminus. This is another data set of the same source.
For assay [7] the target is unchanged. The assay is described as above. The source holds these as a separate data set.
Assay [8] has the same target. As to the kind of experiment: competition ELISA, biotinylated human Aβ (1-40) on streptavidin plate; competitor: mouse 2E7 at constant concentration; Experiment 2. On the procedure:
(§5) Two types of competition ELISA were established in order to compare the Aβ binding activity of the three humanised variants compared to the 2E7 chimeric antibody. 1) Immobilised β-amyloid; biotinylated human Aβ peptide (1-40) was immobilized through Streptavidin on ELISA plates Mouse 2E7 antibody was added at a constant concentration along with a dilution series of 2E7-derived humanised variant antibodies. Bound mouse 2E7 MAb was then detected with anti-mouse IgG conjugate.

The target is the same in assay [9]. The experiment in a line: competition ELISA, biotinylated human Aβ (1-40) on streptavidin plate; competitor: mouse 2E7 at constant concentration; Experiment 1. On the procedure: as §5
For assay [10] the target is unchanged. The experiment in a line: SPR Biacore 3000, Method A(i): C-terminally biotinylated β-amyloid 1-40 on streptavidin chip, antibody as analyte; Run 1. On the procedure: as §3, §2
For assay [11] the target is unchanged. The experiment in a line: SPR Biacore 3000, Method A(i): C-terminally biotinylated β-amyloid 1-40 on streptavidin chip, antibody as analyte; Run 2. Here is the method:
as §3, §2

For assay [12], the target named is T4, human Aβ peptide (length not stated). As to the kind of experiment: competition ELISA, β-amyloid in solution pre-incubated with the antibody; competitor: immobilised mouse 2E7; Experiment 2. On the procedure:
as §4

The target of assay [13] is T3, human Aβ peptide (1-40) biotinylated at …. As to the kind of experiment: Aβ binding ELISA with culture supernatant, Aβ peptide (1-40).

T1 sequence (P05067 672-713 limits assumed): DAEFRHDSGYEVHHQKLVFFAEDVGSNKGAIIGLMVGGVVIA
T2 sequence (P05067 672-711 limits assumed): as the sequence (P05067 672-711 limits assumed) above

B1: 2F11, an identical sequence clone to mouse 2E7 MAb (antibody, V domains shown)
VH: EVKLVESGGGLVQPGGSLKLSCAVSGFTFSDNGMAWVRQAPRKGPEWIAFISNLAYSIDYADTVTGRFTISRDNAKNTLYLEMSSLRSEDTAMYYCVSGTWFAYWGQGTLVTVSA
VL: DVVLTQTPLSLPVSLGDQASISCRVSQSLLHSNGYTYLHWYLQKPGQSPKLLIYKVSNRFSGVPDRFSGSGSGTDFTLKISRVEAEDLGVYFCSQTRHVPYTFGGGTKLEIK
notes: Mouse antibody
What is called Kd is a measure of binding affinity in units of concentration. A high value points to a looser complex. One may read the koff as a measure of how fast the partners let go of each other. The kon is the second-order rate constant of association. The low end stands for slower complex formation, the high end for faster complex formation. With B1, in [1], the Kd stood at 1.14 nM, the koff amounted to 0.000274 s⁻¹ and the on-rate constant (kon) is 239000 M⁻¹ s⁻¹. In assay [2], this molecule showed a Kd of 1.31 nM, an off-rate (koff) of 0.000392 s⁻¹ and an on-rate (kon) of 299000 M⁻¹ s⁻¹.

B2: Chimeric 2E7 antibody (2E7c) (antibody, human IgG1, V domains shown)
VH: B1 VH
VL: B1 VL
notes: Parent murine V regions on human IgG1 (L235A, G237A) and human C kappa; also called 2E7c Chimera; not shown: human IgG1 heavy chain constant region, Fc mutated (L235A, G237A); human C kappa constant region
The EC50 is the concentration giving half of the maximal effect. Low readings indicate an effect from little substance, high ones a need for much substance. A word on the IC50: it is the midpoint of a concentration-inhibition curve. High values mean a need for much substance, low ones inhibition by little substance. For the molecule B2, the EC50 in assay [3] was determined as 0.044 µg/mL; in assay [6], 0.033 µg/mL; in assay [7], 0.043 µg/mL. Also, the Kd in assay [4] worked out at 0.0458 nM; in assay [10], 0.0481 nM; in [11], 0.0435 nM. Besides, the half-inhibitory concentration (IC50) was 0.052 µg/mL in assay [5], 1.29 µg/mL in [8] and 1.31 µg/mL in assay [9].

B3: Humanised 2E7 variant H1L1 (antibody, human IgG1, kappa, V domains shown)
VH: EVQLVESGGGLVQPGGSLRLSCAASGFTFSDNGMAWVRQAPGKGLEWVSFISNLAYSIDYADTVTGRFTISRDNAKNSLYLQMNSLRAEDTAVYYCVSGTWFAYWGQGTLVTVSS
VL: DIVMTQSPLSLPVTPGEPASISCRVSQSLLHSNGYTYLHWYLQKPGQSPQLLIYKVSNRFSGVPDRFSGSGSGTDFTLKISRVEAEDVGVYYCSQTRHVPYTFGGGTKVEIKR
notes: Human IgG1 with L235A and G237A, human kappa; also called L1+H1
Turning to B3, the 50% effective concentration (EC50) in assay [3] amounted to 0.047 µg/mL; in assay [6] it was 0.035 µg/mL; in assay [7], 0.051 µg/mL. Also, the Kd was 0.0936 nM in assay [4], 0.095 nM in [10] and 0.0922 nM in [11]. Besides, the half-inhibitory concentration (IC50) in assay [12] turned out to be 0.14 µg/mL; in assay [5], 0.114 µg/mL; in [8], 1.76 µg/mL; in assay [9], 1.62 µg/mL.

B4: H2L1 Fab cys, H2 heavy chain truncated at the second cysteine in the hinge region at residue 226 (Fab, V domains shown)
VH: B3 VH with A24V
VL: B3 VL
notes: Recombinant Fab from CHOK1 culture supernatant; also called (b) H2L1 Fab cys
B4 displayed a concentration for a half-maximal effect (EC50) in assay [13] of 0.226 µg/mL.

B5: H2L1 Fab His, H2 heavy chain truncated at position 224 with a C-terminal 6x histidine tag including histidine at position 224 (Fab, V domains shown)
VH: B3 VH with A24V
VL: B3 VL
notes: Recombinant Fab from CHOK1 culture supernatant
As for B5, in assay [13], a half-maximal response (EC50) required 0.227 µg/mL.

B6: H2L1 Fab, H2 heavy chain truncated at residue 224 of the hinge region (Fab, V domains shown)
VH: B3 VH with A24V
VL: B3 VL
notes: Recombinant Fab from CHOK1 culture supernatant; also called (a) H2L1 Fab
The molecule B6 displayed an EC50 in [13] of 0.239 µg/mL.

B7: Humanised 2E7 variant H3L1 (antibody, human IgG1, kappa, V domains shown)
VH: B3 VH with V48I
VL: B3 VL
notes: Human IgG1 with L235A and G237A, human kappa; also called L1+H3
As for B7, the 50% effective concentration (EC50) worked out at 0.04 µg/mL in [3], 0.044 µg/mL in [6] and 0.055 µg/mL in assay [7]. The Kd in assay [4] was 0.0666 nM; in [10], 0.076 nM; in assay [11] it was 0.0572 nM. The half-inhibitory concentration (IC50) was 0.115 µg/mL in [12], 0.069 µg/mL in assay [5], 1.39 µg/mL in assay [8] and 1.53 µg/mL in assay [9].
